Assay results taken from article PMC7949091.

Biological target: HA-tagged extracellular domain of EspIgR (E. sinensis polymeric immunoglobulin receptor) (E. sinensis)

Flag-tagged EsVg-DUF1943 domain (domain or fragment)
percentage of hemocyte phagocytosis of FITC-labeled S. aureus coated with rEsVg-DUF1943, in vitro, flow cytometry (controls ∼11.39%; with siEspIgR ∼5.57%): 22.1%
percentage of hemocyte phagocytosis of FITC-labeled V. parahaemolyticus coated with rEsVg-DUF1943, in vitro, flow cytometry (with siEspIgR ∼6.10%): 21.5%
